Experimental data taken from patent publication US9383360B2, “Compositions and methods relating to lyme disease” (The United States of America, as represented by the …, priority 2012, dated 2016).

What was measured:
Versican = Versican (Homo sapiens, UniProt P13611); assay: BbHtrA proteolysis assay, versican substrate; assay type: biochemical; conditions: SDS-PAGE, FIG. 5
Procedure: (§1) For proteolysis assays described in Examples herein, purified protein substrates (200-600 nM) and proteases (100-150 nM) were diluted in assay buffer (50 mM HEPES, pH 7.4, 5 mM CaCl2) and incubated overnight at 37° C. Samples were boiled for 4 minutes to inactivate the proteases. Proteoglycans were deglycosylated by overnight incubation at 37° C. with 0.01 U chondroitinase ABC (Seikagaku). Reactions were stopped by the addition of SDS/PAGE sample buffer, boiled for 4 minutes, and electrophoresed on pre-cast Tris-glycine gels (BioRad). Reaction products were visualized by silver staining.
(§2) Purified proteins were incubated with BbHtrA or BbHtrA^S226A as described herein. HtrA (also known as DegP) proteases belong to the family of serine proteases which contain a highly reactive serine residue in their active site. This serine (Ser210 in DegP) is part of the canonical His-Ser-Asp catalytic triad and mutation of the catalytic serine abolishes proteolytic activity (Skorko-Glonek et al., 1995). In BbHtrA, residues His119, Ser226 and Asp149 form the catalytic triad and mutation of serine 226 to alanine abolished proteolytic activity as expected (FIG. 5).
(§3) Reaction products were separated by SDS-PAGE and silver stained. Native collagen II and recombinant tenascin C were not degraded by BbHtrA indicating selectivity for proteoglycans, E-cadherin and fibronectin. […]

Casein = assay: BbHtrA proteolysis assay, casein substrate; assay type: biochemical, bovine; conditions: SDS-PAGE, FIG. 5
Procedure: as §1, §2, §3

β-casein = molecular target: T1, β-casein (Bos taurus, UniProt P02666); assay: β-casein zymography; assay type: biochemical; conditions: 1 μg recombinant protein, 12% β-casein zymogram gel, developed 40 h at 37° C., FIG. 12A
T1 construct: purchased Bio-Rad
T1 sequence (P02666 16-224): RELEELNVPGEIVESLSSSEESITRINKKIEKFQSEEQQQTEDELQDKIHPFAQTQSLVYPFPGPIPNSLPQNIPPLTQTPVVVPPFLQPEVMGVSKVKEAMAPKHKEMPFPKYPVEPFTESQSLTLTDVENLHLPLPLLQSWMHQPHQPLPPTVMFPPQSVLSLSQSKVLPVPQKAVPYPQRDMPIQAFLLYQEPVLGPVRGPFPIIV
Procedure: Proteolytic activity was studied by zymography of lysates of the prototype strains of each of the major genospecies of Borrelia that cause Lyme disease. Borrelia burgdorferi (passage 4, non-clonal, infectious strain B31), Borrelia garinii (unknown passage, infectious strain FR-20047) and Borrelia afzelii (unknown passage, infectious strain ACA-1) were grown in Barbour-Stoenner-Kelly media (BSK II) supplemented with 6% rabbit serum at 37° C. Borrelial lysates (˜1×10^8 B. garinii, B. afzelii; ˜5×10^7 B. burgdorferi) and recombinant BbHtrA proteins (1 μg) were subjected to SDS-PAGE electrophoresis using 12% β-casein Zymogram Ready Gels (Bio-Rad). Following electrophoresis, the gels were renatured in 2.5% Triton X-100 (Sigma) for 60 min at 37° C. with a buffer change at 15 min. The gels were developed in Zymogram Development Buffer (BioRad) for 40 h at 37° C. with a buffer change at 15 min. Gels were stained (0.5% Coomassie Brilliant Blue R-250, 40% methanol, 10% glacial acetic acid) for 60 min at room temperature and then destained (40% methanol, 10% glacial acetic acid).

Tenascin C = Tenascin C (Homo sapiens, UniProt P24821); assay: BbHtrA proteolysis assay, tenascin C substrate; assay type: biochemical; conditions: SDS-PAGE, silver stain
Procedure: as §1, §2, §3

Decorin = assay: BbHtrA proteolysis assay, decorin substrate; assay type: biochemical, bovine, human; conditions: SDS-PAGE, FIG. 5
Procedure: as §1, §2, §3

Plasma fibronectin = assay: BbHtrA proteolysis assay, plasma fibronectin substrate; assay type: biochemical, human; conditions: incubated overnight or 96 hours, SDS-PAGE, FIG. 8A
Procedure: as §1
BbHtrA generates pro-inflammatory amino terminal (Fnf-29) and carboxyl terminal (FnIII13-14) fibronectin fragments. […] Fibronectin was incubated with BbHtrA overnight (FIG. 8A, lane 1) or for 96 hours (FIG. 8A, lane 3). Reaction products were separated electrophoretically, and the bands were excised and analyzed by tandem LC MS/MS, FIG. 8B.

Brevican = molecular target: T2, Brevican (Homo sapiens, UniProt Q96GW7); assay: BbHtrA proteolysis assay, brevican substrate; assay type: biochemical; conditions: SDS-PAGE, FIG. 5
T2 sequence (Q96GW7 23-911): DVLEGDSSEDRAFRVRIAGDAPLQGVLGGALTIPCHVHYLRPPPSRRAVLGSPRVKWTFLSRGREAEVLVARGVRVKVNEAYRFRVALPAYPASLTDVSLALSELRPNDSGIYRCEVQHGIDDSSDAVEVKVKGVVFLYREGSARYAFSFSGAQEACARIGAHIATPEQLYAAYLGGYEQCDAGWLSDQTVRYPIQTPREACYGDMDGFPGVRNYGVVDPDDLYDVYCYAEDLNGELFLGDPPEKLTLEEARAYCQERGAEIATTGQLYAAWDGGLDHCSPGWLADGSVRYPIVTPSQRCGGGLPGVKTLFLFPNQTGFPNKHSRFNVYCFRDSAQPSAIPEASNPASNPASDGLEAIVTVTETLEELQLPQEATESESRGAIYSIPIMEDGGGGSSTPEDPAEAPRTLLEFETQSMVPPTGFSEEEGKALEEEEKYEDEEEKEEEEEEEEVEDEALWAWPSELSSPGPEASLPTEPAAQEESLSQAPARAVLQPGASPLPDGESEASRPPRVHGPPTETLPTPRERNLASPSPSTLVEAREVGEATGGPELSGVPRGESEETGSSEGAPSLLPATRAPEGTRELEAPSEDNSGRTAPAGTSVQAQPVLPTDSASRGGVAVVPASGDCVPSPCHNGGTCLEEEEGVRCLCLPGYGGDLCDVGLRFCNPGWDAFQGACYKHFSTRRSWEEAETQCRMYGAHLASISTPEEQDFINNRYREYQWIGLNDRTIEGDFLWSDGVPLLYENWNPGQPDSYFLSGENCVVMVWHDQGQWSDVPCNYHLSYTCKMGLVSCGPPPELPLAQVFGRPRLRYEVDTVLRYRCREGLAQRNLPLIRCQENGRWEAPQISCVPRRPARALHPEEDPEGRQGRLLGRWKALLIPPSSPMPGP
Procedure: as §1, §2, §3

Collagen type II = molecular target: T3, Collagen type II (Homo sapiens, UniProt P02458); assay: BbHtrA proteolysis assay, collagen type II substrate; assay type: biochemical; conditions: SDS-PAGE, silver stain
T3 construct: Native collagen II and recombinant tenascin C were not degraded by BbHtrA; from tissue
Procedure: as §1, §2, §3

T3 sequence (P02458 182-1241 limits assumed): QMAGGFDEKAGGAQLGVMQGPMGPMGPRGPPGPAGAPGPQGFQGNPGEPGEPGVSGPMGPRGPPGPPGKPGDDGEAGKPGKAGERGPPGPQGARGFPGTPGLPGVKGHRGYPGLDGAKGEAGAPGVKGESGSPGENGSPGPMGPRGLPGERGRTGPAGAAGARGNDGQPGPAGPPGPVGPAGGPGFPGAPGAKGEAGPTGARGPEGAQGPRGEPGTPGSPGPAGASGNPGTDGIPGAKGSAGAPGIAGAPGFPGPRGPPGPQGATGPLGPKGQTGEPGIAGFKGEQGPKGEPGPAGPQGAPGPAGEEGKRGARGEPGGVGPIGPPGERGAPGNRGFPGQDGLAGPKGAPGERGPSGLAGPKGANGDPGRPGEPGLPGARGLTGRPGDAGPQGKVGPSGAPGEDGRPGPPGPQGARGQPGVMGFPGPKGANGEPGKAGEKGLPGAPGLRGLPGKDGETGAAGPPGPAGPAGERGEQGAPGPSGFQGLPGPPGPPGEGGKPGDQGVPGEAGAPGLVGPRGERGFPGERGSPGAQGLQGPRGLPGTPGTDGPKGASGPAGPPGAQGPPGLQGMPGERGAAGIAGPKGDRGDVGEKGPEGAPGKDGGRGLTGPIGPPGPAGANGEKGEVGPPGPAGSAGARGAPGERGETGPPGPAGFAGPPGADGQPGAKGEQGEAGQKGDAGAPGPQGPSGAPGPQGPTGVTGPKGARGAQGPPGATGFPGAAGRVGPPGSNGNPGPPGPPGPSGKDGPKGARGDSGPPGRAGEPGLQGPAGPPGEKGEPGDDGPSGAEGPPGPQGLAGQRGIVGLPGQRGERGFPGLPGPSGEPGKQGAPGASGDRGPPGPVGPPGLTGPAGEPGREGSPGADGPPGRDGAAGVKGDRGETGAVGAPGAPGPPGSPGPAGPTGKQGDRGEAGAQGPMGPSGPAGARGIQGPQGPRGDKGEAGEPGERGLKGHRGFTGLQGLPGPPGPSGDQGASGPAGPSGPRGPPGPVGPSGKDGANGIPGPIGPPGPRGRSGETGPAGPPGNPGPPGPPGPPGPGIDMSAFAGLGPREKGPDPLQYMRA
Sequence of Tenascin C (P24821 23-2201): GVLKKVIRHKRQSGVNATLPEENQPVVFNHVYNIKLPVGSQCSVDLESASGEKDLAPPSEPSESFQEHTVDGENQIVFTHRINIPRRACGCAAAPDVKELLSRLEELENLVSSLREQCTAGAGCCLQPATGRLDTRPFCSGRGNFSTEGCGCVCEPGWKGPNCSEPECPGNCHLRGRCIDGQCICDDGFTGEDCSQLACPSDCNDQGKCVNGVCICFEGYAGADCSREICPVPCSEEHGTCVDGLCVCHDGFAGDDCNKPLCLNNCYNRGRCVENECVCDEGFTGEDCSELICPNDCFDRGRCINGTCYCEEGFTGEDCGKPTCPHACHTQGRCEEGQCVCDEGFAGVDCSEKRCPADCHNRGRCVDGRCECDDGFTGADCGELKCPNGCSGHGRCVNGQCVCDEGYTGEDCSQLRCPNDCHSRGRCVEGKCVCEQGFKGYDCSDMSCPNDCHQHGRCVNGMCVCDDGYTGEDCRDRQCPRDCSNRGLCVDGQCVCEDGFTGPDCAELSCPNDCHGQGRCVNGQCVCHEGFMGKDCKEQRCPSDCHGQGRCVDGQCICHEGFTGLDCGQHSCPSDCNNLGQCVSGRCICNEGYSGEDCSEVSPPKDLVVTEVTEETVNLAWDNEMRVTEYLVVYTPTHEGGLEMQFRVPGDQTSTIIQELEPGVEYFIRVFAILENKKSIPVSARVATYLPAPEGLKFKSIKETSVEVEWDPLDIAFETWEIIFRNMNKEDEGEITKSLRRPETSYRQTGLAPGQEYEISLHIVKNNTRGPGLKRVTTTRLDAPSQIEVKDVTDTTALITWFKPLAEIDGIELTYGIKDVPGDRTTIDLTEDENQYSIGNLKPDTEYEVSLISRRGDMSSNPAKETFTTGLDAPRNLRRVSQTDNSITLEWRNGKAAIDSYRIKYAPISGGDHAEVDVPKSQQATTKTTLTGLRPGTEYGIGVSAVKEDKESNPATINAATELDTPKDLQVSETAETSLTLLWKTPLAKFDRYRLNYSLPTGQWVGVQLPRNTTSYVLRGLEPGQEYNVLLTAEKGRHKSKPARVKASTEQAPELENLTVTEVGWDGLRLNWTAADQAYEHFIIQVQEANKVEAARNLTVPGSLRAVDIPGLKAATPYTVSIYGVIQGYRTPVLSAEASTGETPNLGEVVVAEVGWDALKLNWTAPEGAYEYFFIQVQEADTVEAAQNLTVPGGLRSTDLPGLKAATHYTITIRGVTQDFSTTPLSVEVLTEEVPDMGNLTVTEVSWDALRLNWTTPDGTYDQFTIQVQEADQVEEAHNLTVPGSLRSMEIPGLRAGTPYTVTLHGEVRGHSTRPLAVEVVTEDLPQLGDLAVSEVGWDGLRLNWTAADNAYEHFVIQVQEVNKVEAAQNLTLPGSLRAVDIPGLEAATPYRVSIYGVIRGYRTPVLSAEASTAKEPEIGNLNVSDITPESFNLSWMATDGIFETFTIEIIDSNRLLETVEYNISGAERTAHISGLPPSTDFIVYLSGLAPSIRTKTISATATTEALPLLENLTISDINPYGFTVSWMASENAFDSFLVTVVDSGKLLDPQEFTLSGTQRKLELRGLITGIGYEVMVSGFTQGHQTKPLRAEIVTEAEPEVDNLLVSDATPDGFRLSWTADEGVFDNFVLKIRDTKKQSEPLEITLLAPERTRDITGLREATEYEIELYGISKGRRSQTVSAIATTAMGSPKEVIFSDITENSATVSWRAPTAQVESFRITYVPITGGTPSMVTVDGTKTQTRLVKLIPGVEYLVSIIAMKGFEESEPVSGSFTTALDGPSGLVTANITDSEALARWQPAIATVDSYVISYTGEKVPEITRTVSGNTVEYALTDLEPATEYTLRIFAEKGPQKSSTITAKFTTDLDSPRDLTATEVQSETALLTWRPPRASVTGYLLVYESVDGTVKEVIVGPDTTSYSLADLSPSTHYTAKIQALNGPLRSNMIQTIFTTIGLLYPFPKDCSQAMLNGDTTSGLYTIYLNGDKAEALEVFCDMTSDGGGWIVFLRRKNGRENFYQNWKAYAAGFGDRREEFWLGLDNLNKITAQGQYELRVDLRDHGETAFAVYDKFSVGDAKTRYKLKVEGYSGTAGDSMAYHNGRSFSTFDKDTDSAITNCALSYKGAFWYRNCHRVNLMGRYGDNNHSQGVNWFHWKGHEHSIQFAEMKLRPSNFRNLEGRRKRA

B1: BbHtrA: Recombinant wild type B. burgdorferi HtrA serine protease, mature protein amino acids 38-474, expressed in E. coli (SEQ ID NO:1, 9) (protein, listed as Borrelia burgdorferi)
chain: EEKDNTVRALQDSFREVSKKILPSSVEVHATGVIKQSFPIPFFFFDMPEFDSERKSNWAGSGVIIGRDSQKKSLFYVVTNSHVVDKATELEVVSYDKKKHKAKLIGKDEKKDIALISFESDDATIKVADLGDSDKLEIGDWVMAVGSPFQFSFTVTAGIVSGLQRSANPNLQSRNLFIQTDAAINRGNSGGPLVNIKGEVIGINAWIASNSGGNIGLGFAIPVNNIKSTVDFFLKGKKIESAWLGISFYPLKTRDSEVLKSLGVESNDVSAAIIASLYPGSPAVKSGLRAGDIIMKVNGVSMSVFQDVTSYISDFYAGEKVNVEILRGNVKKNIEIVLAVRPKDKELSSSKMLPGFVVYPLVEDIKAQLNLRNWIKGVVVDYIDKNLASNIKMKSGDVILSVNSKSVSNLREFYDALEVGKNTYKILRGNDSFKITF
Versican
  Degradation of versican: degrades
Casein
  Degradation of casein: degrades
β-casein
  Proteolytic activity against β-casein (clearing around the protein band): proteolytically active
Tenascin C
  Degradation of recombinant tenascin C: not degraded
Decorin
  Degradation of decorin: degrades
Plasma fibronectin
  Degradation of fibronectin: yielded distinct product bands
Brevican
  Degradation of brevican: degrades
Collagen type II
  Degradation of native collagen II: not degraded
